The results in this text go back to patent US20230227577A1 (MYTHIC THERAPEUTICS, published 2023).

The target in assay [1] is T1, mouse DLL3 protein (mouse, UniProt O88516 33-490, limits assumed).
T1 construct: also called murine DLL3
T1 sequence (looked up): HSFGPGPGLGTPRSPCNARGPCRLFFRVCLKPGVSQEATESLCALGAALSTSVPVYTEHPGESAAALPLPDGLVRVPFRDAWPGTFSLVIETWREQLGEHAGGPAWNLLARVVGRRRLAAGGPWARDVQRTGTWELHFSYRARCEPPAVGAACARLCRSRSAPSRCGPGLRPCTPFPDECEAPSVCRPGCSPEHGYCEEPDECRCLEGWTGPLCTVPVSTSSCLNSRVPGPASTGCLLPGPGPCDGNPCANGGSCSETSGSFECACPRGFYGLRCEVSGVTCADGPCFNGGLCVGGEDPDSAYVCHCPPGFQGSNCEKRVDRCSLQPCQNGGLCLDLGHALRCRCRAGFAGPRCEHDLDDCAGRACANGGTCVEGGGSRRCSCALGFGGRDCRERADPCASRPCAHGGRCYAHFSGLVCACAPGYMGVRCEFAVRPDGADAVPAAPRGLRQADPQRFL
The experiment in a line: Octet (DLL3 on AR2G tips), ELISA and FACS; values only in FIG. 3. On the technique in general: BLI is a label-free optical method that tracks binding on a fibre tip over time.

The target of assay [2] is T2, mouse DLL3 on CHO cells (mouse, UniProt O88516 33-592).
T2 construct: whole, on cells; also called CHO cells expressing mouse DLL3
T2 sequence (looked up): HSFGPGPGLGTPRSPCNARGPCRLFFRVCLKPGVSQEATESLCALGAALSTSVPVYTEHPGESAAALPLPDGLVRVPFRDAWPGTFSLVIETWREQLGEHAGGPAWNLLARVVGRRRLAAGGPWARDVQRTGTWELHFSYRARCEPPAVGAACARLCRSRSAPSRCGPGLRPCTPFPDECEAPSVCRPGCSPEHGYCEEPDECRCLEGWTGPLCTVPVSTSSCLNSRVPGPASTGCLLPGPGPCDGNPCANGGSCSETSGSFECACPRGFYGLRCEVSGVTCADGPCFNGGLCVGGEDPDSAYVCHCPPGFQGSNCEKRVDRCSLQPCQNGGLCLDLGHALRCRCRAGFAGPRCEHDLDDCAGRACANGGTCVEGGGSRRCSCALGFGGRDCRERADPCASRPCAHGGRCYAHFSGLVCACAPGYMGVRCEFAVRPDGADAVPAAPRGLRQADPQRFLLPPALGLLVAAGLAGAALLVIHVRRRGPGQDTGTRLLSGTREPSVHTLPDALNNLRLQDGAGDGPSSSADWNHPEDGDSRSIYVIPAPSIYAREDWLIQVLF
In words: flow cytometry (FACS) on CHO cells expressing mouse DLL3. As to the method:
(§1) Additional experiments were carried out to further characterize the binding properties of the anti-DLL3 constructs. Binding properties tested include dissociation constant (KD), off-rate (koff), binding to DLL3 protein by ELISA and binding to CHO cells expressing human, cyno or mouse DLL3. To obtain off-rate (koff), human biotinylated DLL3 was immobilized on Octet SA tips, and cynomolgus or mouse DLL3 was immobilized on Octet AR2G tips. For each DLL3 protein, the binding to a dilution series of each anti-DLL3 construct was measured using Fortebio Octet Red. The dissociation constant (KD), off-rate (koff) and other kinetic parameters for each anti-DLL3 construct were calculated using a 1:1 binding model. In addition, binding of these anti-DLL3 constructs to CHO cells expressing human, cyno or mouse DLL3 protein was analyzed using flow cytometry (FACS).
A general note: Flow cytometry measures light scatter and fluorescence of single cells or particles in a stream.

Assay [3] concerns the target T3, DLL3 target antigen coated on Octet SA tips (binning experiment) (Homo sapiens (Human), UniProt Q9NYJ7 27-492, Probably biotinylated for capture on streptavidin (SA) tips. The site is not stated.).
T3 sequence: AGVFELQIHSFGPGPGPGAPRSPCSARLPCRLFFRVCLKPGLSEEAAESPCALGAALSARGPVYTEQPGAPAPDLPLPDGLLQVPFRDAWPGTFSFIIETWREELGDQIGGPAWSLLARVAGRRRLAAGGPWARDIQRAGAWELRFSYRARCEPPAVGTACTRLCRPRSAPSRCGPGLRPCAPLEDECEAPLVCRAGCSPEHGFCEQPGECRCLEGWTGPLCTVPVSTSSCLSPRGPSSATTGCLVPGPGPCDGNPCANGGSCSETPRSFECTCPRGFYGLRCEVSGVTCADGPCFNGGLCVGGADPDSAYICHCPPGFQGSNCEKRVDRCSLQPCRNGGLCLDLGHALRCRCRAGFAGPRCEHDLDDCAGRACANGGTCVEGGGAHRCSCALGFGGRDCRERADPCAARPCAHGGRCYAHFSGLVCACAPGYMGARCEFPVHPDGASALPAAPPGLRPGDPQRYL
The experiment in a line: Octet binning on DLL3-coated SA tips; competitor: 3HCE4. Here is the method: (§2) Antibody binning experiments were carried out for 5 anti-DLL3 VHHs and an anti-human DLL3 BiTE (SEQ ID NO: 756). The target antigen was coated on a series of Octet SA tips. Each series of tips was first soaked in a periplasmic extract containing one specific VHH. After the response signals reached saturation, the tips were transferred to a mix of PEs containing again the first VHH (at the same concentration) plus a different VHH (termed secondary VHH) for each tip of the series. Secondary VHH that still bind the target antigen in the presence of the first VHH will show an increased response, as compared to the binding response of the first VHH alone. This was repeated for each VHH as primary VHH until all VHH were tested against each other in both directions (as primary and as secondary binder). From the response data, the bins were deduced for each VHH. 2HCE117 and 3HCE4 show competition with the human DLL3 BiTEs, whereas 3HCE56 and 3HCE87 show a partial competition.

Assay [4] concerns the target T3, DLL3 target antigen coated on Octet SA …. The experiment in a line: Octet binning on DLL3-coated SA tips; competitor: 2HCE27. Here is the method:
as §2

Assay [5] shares this target. The experiment in a line: Octet binning on DLL3-coated SA tips; competitor: 3HCE56. As to the method: as §2
The target is the same in assay [6]. The experiment in a line: Octet binning on DLL3-coated SA tips; competitor: 3HCE87. Here is the method:
as §2

Assay [7] has the same target. In words: Octet binning on DLL3-coated SA tips; competitor: 2HCE117. Here is the method:
as §2

Assay [8] shares this target. In words: Octet binning on DLL3-coated SA tips; competitor: DLL3 BiTEs. Here is the method:
as §2

Assay [9] has as its target T4, DLL3 (ELISA DLL3).
T4 construct: also called DLL3 protein in ELISA
T4 chain: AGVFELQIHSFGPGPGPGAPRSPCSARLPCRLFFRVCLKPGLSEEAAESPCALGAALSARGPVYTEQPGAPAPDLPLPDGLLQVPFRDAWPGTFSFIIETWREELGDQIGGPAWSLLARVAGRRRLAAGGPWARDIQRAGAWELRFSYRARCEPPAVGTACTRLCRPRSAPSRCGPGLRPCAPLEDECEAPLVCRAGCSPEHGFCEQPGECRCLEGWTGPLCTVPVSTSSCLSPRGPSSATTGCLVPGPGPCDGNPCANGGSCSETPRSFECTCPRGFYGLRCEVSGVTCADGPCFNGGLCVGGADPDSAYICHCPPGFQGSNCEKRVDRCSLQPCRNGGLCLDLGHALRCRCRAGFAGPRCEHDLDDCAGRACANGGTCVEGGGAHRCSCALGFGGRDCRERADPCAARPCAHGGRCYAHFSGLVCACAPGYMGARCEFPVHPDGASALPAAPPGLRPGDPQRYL
The experiment in a line: ELISA, ratio of the signal on DLL3 to the signal on the control. In general terms: An ELISA detects its analyte on a solid surface through an enzyme-linked reagent.

Assay [10] has as its target T5, recombinant human DLL3 protein (human, UniProt Q9NYJ7 27-492, limits assumed).
T5 construct: also called rhu DLL3; human biotinylated DLL3
T5 sequence (looked up): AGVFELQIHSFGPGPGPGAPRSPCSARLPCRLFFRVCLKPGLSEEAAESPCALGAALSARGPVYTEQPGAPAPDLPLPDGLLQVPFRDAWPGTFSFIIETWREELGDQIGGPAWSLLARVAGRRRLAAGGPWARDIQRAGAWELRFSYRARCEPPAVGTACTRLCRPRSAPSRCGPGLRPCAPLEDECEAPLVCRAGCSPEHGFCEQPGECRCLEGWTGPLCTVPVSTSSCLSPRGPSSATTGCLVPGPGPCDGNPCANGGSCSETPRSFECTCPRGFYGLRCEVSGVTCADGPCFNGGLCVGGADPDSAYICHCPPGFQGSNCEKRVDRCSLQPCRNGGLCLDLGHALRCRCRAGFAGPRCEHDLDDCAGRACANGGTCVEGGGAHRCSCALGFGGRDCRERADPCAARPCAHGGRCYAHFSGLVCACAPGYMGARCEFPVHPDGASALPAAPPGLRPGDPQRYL
The experiment in a line: Fortebio Octet Red, DLL3 immobilised on tips, dilution series of the VHH, 1:1 binding model; KD error 1.90E-10; Full R2 0.9862. Here is the method:
as §1

Assay [11] addresses T5, recombinant human DLL3 protein. The experiment in a line: Fortebio Octet Red, DLL3 immobilised on tips, dilution series of the VHH, 1:1 binding model; kon error 5.82E+02; Full R2 0.9862. Here is the method:
as §1

Assay [12] has the same target. The experiment in a line: Fortebio Octet Red, DLL3 immobilised on tips, dilution series of the VHH, 1:1 binding model; koff error 4.12E-06; Full R2 0.9862. As to the method: as §1

B1: 3HCE56 anti-DLL3 VHH (VHH)
VHH: QVQLQESGGGLVQAGGSLRLSCAASGRTFSVDAMGWLRQAPGKEREFVVVIDWTGGSTAYADSVKGRFTISRDNARNTVYLQMNNLKPEDTGVYYCAARERSRTAYDYWGQGTQVTVSS
notes: In the binning assay it was used as a periplasmic extract
As usually defined, the Kd is the constant that tells how readily two partners part at equilibrium. What is called kon is a measure of how fast the partners come together. What is called koff is the rate constant with which the complex falls apart. B1: the binding result in [1] and in assay [2] was “binds” each time. Further, the “binning response (unit not given)” value in assay [3] is -79.6; in [4] it was -3.58; in [5] it was 0; in [6], -99.1; in assay [7], 1110; in assay [8], 44.1. In addition, in assay [9], the DLL3 / control was found to be 18.5. For the same molecule, the dissociation constant Kd in assay [10] came to 21.3 nM. In assay [11], the association rate constant (kon) came to 68500 M⁻¹ s⁻¹. The koff in [12] was 0.00146 s⁻¹.
